Measured values as given in US20040081647A1 (published 2004).

Molecular target: T1, human TNFα fusion protein with an N-terminal S-Tag (human, UniProt P01375 77-233)
T1 construct: Constructed, expressed and purified by the applicants; also called S-TNF; not shown: 15 amino acid S-Tag peptide (Novagen)
Test: indirect ELISA: sp55 from conditioned media captured on Ni-NTA wells, S-TNF at 1 µg/mL, S-protein-HRP, absorbance at 370 nm

T1 sequence (P01375 77-233): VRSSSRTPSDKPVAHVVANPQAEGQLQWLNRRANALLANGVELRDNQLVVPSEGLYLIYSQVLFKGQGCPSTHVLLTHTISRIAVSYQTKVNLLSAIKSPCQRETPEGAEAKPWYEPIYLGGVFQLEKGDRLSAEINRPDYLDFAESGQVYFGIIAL

B1: sp55 address domain (human TNFR-1 ecto-domain residues 30-211) with C-terminal myc and His6 tags (receptor)
chain: DAAQPARRAVRSLVPHLGDREKRDSVCPQGKYIHPQNNSICCTKCHKGTYLYNDCPGPGQDTDCRECESGSFTASENHLRHCLSCSKCRKEMGQVEISSCTVDRDTVCGCRKNQYRHYWSENLFQCFNCSLCLNGTVHLSCQEKQNTVCTCHAGFFLRENECVSCSNCKKSLECTKLCLPQIENVKGTEDSGTTRGGPEQKLISEEDLNSAVDHHHHHH
notes: also called p55FL-myc-his; p55FL
In the case of B1, the “fold elevation of S-TNF binding over non-specific binding in control samples” value is reported as 3 fold.
